Patent US20230295597

Legend:
[1] = target: T1, trADAMTS-13^R312K (truncated ADAMTS-13 mutant, Arg312 to Lys)
T1 chain: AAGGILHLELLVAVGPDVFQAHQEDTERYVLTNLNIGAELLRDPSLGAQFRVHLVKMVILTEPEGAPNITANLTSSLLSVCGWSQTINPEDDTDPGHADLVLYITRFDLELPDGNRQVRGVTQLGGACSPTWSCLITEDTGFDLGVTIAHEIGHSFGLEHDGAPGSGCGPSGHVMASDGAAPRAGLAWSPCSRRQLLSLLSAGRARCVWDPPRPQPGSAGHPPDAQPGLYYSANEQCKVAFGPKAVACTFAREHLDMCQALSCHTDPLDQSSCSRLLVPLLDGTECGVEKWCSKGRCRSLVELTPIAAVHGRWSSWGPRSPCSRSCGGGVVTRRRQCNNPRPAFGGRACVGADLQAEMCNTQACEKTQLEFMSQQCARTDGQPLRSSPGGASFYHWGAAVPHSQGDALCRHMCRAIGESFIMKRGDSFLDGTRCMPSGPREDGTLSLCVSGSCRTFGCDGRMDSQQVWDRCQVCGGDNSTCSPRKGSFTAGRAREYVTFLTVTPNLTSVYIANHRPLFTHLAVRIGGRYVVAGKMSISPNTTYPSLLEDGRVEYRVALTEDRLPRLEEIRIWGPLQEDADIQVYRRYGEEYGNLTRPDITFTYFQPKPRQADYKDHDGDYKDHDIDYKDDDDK

[2] = target: T2, native full length human ADAMTS-13 (wild type)
T2 chain: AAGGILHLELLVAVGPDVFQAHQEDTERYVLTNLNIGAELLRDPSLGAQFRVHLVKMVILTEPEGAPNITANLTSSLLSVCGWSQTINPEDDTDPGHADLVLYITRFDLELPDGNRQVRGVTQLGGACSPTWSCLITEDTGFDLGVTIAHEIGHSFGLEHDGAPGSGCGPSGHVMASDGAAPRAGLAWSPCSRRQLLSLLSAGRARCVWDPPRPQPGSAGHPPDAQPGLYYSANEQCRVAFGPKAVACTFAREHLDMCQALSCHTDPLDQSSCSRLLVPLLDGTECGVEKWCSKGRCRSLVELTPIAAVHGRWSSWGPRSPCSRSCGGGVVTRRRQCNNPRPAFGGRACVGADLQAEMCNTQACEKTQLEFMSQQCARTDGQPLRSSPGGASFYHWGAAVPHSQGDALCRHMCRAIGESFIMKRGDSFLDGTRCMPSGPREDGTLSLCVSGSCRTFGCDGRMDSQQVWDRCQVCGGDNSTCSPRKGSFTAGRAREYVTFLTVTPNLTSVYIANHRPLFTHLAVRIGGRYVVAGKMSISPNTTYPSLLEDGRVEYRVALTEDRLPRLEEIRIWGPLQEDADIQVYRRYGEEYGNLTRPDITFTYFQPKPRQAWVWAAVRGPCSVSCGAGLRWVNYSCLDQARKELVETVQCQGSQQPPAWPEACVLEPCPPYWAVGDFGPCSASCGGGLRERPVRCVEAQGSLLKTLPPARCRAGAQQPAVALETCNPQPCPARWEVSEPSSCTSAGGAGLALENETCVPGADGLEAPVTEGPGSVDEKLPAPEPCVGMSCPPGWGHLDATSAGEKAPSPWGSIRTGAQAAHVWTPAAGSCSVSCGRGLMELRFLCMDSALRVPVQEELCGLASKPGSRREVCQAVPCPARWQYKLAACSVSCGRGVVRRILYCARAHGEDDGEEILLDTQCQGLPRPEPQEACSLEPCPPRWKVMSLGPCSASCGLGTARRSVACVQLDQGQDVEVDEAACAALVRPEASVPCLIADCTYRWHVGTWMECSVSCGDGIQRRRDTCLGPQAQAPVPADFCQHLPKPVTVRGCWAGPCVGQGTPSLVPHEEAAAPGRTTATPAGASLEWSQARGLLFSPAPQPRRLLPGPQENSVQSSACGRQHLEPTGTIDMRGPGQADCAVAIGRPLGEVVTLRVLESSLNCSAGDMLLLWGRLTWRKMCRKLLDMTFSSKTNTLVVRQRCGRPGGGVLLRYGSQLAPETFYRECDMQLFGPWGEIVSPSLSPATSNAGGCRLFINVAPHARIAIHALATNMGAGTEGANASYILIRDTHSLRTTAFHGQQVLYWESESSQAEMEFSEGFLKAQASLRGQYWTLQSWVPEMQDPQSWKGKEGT

[3] = target: T3, trADAMTS-13^V313A (truncated ADAMTS-13 mutant, Val313 to Ala)
T3 chain: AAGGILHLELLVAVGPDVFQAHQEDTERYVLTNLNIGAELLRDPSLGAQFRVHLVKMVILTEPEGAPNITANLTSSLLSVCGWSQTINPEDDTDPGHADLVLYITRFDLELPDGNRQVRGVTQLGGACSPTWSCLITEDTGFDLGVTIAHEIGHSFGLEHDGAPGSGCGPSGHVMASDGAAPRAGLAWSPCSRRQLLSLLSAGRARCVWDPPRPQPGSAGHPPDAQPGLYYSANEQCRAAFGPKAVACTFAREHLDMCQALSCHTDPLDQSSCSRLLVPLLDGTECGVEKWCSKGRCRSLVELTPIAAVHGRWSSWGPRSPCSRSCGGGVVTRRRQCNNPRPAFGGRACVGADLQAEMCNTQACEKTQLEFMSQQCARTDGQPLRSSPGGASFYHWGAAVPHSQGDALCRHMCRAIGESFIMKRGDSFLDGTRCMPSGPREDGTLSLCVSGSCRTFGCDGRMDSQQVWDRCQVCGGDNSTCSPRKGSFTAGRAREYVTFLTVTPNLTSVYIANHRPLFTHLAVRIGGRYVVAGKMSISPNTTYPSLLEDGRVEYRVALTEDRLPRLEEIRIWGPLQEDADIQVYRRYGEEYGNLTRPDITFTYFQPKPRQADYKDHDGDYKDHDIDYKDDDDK

B1: tissue plasminogen activator (tPA) (protein)
chain: SYQVICRDEKTQMIYQQHQSWLRPVLRSNRVEYCWCNSGRAQCHSVPVKSCSEPRCFNGGTCQQALYFSDFVCQCPEGFAGKCCEIGNSDCYFGNGSAYRGTHSLTESGASCLPWNSMILIGKVYTAQNPSAQALGLGKHNYCRNPDGDAKPWCHVLKNRRLTWEYCDVPSCSTCGLRQYSQPQFRIKGGLFADIASHPWQAAIFAKHRRSPGERFLCGGILISSCWILSAAHCFQERFPPHHLTVILGRTYRVVPGEEEQKFEVEKYIVHKEFDDDTYDNDIALLQLKSDSSRCAQESSVVRTVCLPPADLQLPDWTECELSGYGKHEALSPFYSERLKEAHVRLYPSSRCTSQHLLNRTVTDNMLCAGDTRSGGPQANLHDACQGDSGGPLVCLNDGRMTLVGIISWGLGCGQKDVPGVYTKVTNYLDWIRDNMRP
cleavage by tPA (Western blot) and residual proteolytic activity on vWF over time [1]: trADAMTS-13^R312K was resistant to cleavage by tPA under conditions where trADAMTS-13 was proteolyzed completely (FIG. 7A) and lost its catalytic activity (FIG. 7B) | residual proteolytic activity on vWF after 6 hours with or without tPA [1]: trADAMTS-13^R312K and trADAMTS-13^V313D variants were resistant to inactivation by tPA | ADAMTS-13 activity with or without preincubation with tPA (technozym kit) [2]: the activity of both trADAMTS-13 and ADAMTS-13 WT was reduced in the presence of tPA (FIG. 4B) | residual proteolytic activity on vWF after 6 hours with or without tPA [3]: tPA inhibited the proteolytic activity of trADAMTS-13^R312A and trADAMTS-13^V313A variants on vWF (FIG. 8)
